Source: PMC10397247

Experiments:
Test in all cases: two-hybrid library CCNG1;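 note: natural log of median RNA to DNA barcode read ratio; higher means stronger binding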
[1] = target: T1, 4H967-bH
T1 chain: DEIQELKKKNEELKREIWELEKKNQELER

[2] = target: T2, 4H4001-bH
T2 chain: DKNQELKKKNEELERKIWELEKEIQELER

[3] = target: T3, 4H1446-bH
T3 chain: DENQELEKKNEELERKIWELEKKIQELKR

[4] = target: T4, 4H3381-bN
T4 chain: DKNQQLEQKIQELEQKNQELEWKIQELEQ

[5] = target: T5, 4H568-bH
T5 chain: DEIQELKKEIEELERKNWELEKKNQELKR

[6] = target: T6, 4H331-bH
T6 chain: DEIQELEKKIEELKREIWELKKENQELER

[7] = target: T7, 4H3782-bH
T7 chain: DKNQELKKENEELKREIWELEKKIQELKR

[8] = target: T8, 4H797-bH
T8 chain: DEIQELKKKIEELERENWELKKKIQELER

[9] = target: T9, 4H687-bH
T9 chain: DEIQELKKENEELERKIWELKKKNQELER

[10] = target: T10, 4H338-bH
T10 chain: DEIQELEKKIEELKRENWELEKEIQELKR

[11] = target: T11, 4H908-bH
T11 chain: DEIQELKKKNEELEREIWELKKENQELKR

[12] = target: T12, 4H3112-bH
T12 chain: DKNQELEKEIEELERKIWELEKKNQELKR

[13] = target: T13, 4H1257-bH
T13 chain: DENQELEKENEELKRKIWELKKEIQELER

[14] = target: T14, 4H1845-bH
T14 chain: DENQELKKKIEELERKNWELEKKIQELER

[15] = target: T15, 4H953-bH
T15 chain: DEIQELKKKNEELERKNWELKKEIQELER

[16] = target: T16, 4H3185-bH
T16 chain: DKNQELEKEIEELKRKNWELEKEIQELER

[17] = target: T17, 4H3427-bH
T17 chain: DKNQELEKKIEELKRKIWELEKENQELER

[18] = target: T18, 4H918-bH
T18 chain: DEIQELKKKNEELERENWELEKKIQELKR

[19] = target: T19, 4H2618-bH
T19 chain: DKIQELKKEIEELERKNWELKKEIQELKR

[20] = target: T20, 4H883-bH
T20 chain: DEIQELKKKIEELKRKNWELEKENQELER

[21] = target: T21, 4H1828-bH
T21 chain: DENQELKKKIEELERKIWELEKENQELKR

[22] = target: T22, 4H454-bH
T22 chain: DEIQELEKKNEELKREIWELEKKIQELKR

[23] = target: T23, 4H3354-bH
T23 chain: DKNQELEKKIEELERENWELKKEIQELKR

[24] = target: T24, 4H2729-bH
T24 chain: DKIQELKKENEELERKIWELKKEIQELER

[25] = target: T25, 4H754-bH
T25 chain: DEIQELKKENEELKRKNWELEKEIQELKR

[26] = target: T26, 4H72-bH
T26 chain: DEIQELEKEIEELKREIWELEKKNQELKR

[27] = target: T27, 4H717-bH
T27 chain: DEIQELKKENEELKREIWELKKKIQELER

[28] = target: T28, 4H3855-bH
T28 chain: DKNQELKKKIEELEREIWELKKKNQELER

[29] = target: T29, 4H607-bH
T29 chain: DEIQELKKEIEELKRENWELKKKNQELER

[30] = target: T30, 4H2576-bH
T30 chain: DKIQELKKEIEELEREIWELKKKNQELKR

[31] = target: T31, 4H2442-bH
T31 chain: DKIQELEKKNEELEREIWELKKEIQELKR

[32] = target: T32, 4H2667-bH
T32 chain: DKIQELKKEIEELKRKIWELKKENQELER

Binder DENQELEKENEELKRKIWELKKEIQELER [4H1257-bH] has an interaction score [1] of -1.63, an interaction score [2] of -0.377 and an interaction score [3] of -0.833. The interaction score [4] was -0.693, the interaction score [5] was -0.399 and the interaction score [6] was -0.435. For the same binder, the interaction score [7] was 0.911, the interaction score [8] was -0.73 and the interaction score [9] was 0.172. For the same binder, the interaction score [10] was -0.528, the interaction score [11] was -0.669 and the interaction score [12] was -0.383. It also gave an interaction score [13] of -1.44, an interaction score [14] of -1.83 and an interaction score [15] of -0.825. The interaction score [16] was -0.808, the interaction score [17] was 0.386 and the interaction score [18] was 0.00985. It also gave an interaction score [19] of 0.0958, an interaction score [20] of 0.223 and an interaction score [21] of -0.108. The interaction score [22] was 1.26, the interaction score [23] was -0.79 and the interaction score [24] was 0.0373. For the same binder, the interaction score [25] was -0.282, the interaction score [26] was -2.61 and the interaction score [27] was -0.541. It also gave an interaction score [28] of -0.288, an interaction score [29] of -0.218 and an interaction score [30] of 0.394. For the same binder, the interaction score [31] was -0.172 and the interaction score [32] was -0.837.
